# B1: 6 (protein, listed as Homo sapiens)
# chain: MEGPGLGSQCRNHSHGPHPPGFGRYGICAHENKELANAREALPLIEDSSNCDIVKATQYGIFERCKELVEAGYDVRQPDKENVSLLHWAAINNRLDLVKFYISKGAVVDQLGGDLNSTPLHWAIRQGHLPMVILLLQHGADPTLIDGEGFSSIHLAVLFQHMPIIAYLISKGQSVNMTDVNGQTPLMLSAHKVIGPEPTGFLLKFNPSLNVVDKIHQNTPLHWAVAAGNVNAVDKLLEAGSSLDIQNVKGETPLDMALQNKNQLIIHMLKTEAKMRANQKFRLWRWLQKCELFLLLMLSVITMWAIGYILDFNSDSWLLKGCLLVTLFFLTSLFPRFLVGYKNLVYLPTAFLLSSVFWIFMTWFILFFPDLAGAPFYFSFIFSIVAFLYFFYKTWATDPGFTKASEEEKKVNIITLAETGSLDFRTFCTSCLIRKPLRSLHCHVCNCCVARYDQHCLWTGRCIGFGNHHYYIFFLFFLSMVCGWIIYGSFIYLSSHCATTFKEDGLWTYLNQIVACSPWVLYILMLATFHFSWSTFLLLNQLFQIAFLGLTSHERISLQKQSKHMKQTLSLRKTPYNLGFMQNLADFFQCGCFGLVKPCVVDWTSQYTMVFHPAREKVLRSV
# B2: 26 (protein, listed as Homo sapiens)
# chain: MALALAALAAVEPACGSRYQQLQNEEESGEPEQAAGDAPPPYSSISAESAAYFDYKDESGFPKPPSYNVATTLPSYDEAERTKAEATIPLVPGRDEDFVGRDDFDDADQLRIGNDGIFMLTFFMAFLFNWIGFFLSFCLTTSAAGRYGAISGFGLSLIKWILIVRFSTYFPGYFDGQYWLWWVFLVLGFLLFLRGFINYAKVRKMPETFSNLPRTRVLFIY
# B3: 18 (protein, listed as Homo sapiens)
# chain: MPVQLSEHPEWNESMHSLRISVGGLPVLASMTKAADPRFRPRWKVILTFFVGAAILWLLCSHRPAPGRPPTHNAHNWRLGQAPANWYNDTYPLSPPQRTPAGIRYRIAVIADLDTESRAQEENTWFSYLKKGYLTLSDSGDKVAVEWDKDHGVLESHLAEKGRGMELSDLIVFNGKLYSVDDRTGVVYQIEGSKAVPWVILSDGDGTVEKGFKAEWLAVREIVRKRWRLVKQVSHVGVLGQWIQR
# B4: 12 (protein, listed as Homo sapiens)
# chain: MDHHQPGTGRYQVLLNEEDNSESSAIEQPPTSNPAPQIVQAASSAPALETDSSPPPYSSITVEVPTTSDTEVYGEFYPVPPPYSVATSLPTYDEAEKAKAAAMAAAAAETSQRIQEEECPPRDDFSDADQLRVGNDGIFMLAFFMAFIFNWLGFCLSFCITNTIAGRYGAICGFGLSLIKWILIVRFSDYFTGYFNGQYWLWWIFLVLGLLLFFRGFVNYLKVRNMSESMAAAHRTRYFFLL
# B5: 30 (protein, listed as Homo sapiens)
# chain: MDARWWAVVVLAAFPSLGAGGETPEAPPESWTQLWFFRFVVNAAGYASFMVPGYLLVQYFRRKNYLETGRGLCFPLVKACVFGNEPKASDEVPLAPRTEAAETTPMWQALKLLFCATGLQVSYLTWGVLQERVMTRSYGATATSPGERFTDSQFLVLMNRVLALIVAGLSCVLCKQPRHGAPMYRYSFASLSNVLSSWCQYEALKFVSFPTQVLAKASKVIPVMLMGKLVSRRSYEHWEYLTATLISIGVSMFLLSSGPEPRSSPATTLSGLFTVGSLLEQGALLEGTRFMGRHSEFAAHALLLSICSACGQLFIFYTIGQFGAAVFTIIMTLRQAFAILLSCLLYGHTVTVVGGLGVAVVFAALLLRVYARGRLKQRGKKAVPVESPVQKV
# B6: 28 (protein, listed as Homo sapiens)
# chain: MTSFEDADTEETVTCLQMTVYHPGQLQCGIFQSISFNREKLPSSEVVKFGRNSNICHYTFQDKQVSRVQFSLQLFKKFNSSVLSFEIKNMSKKTNLIVDSRELGYLNKMDLPYRCMVRFGEYQFLMEKEDGESLEFFETQFILSPRSLLQENNWPPHRPIPEYGTYSLCSSQSSSPTEMDENES
# B7: 16 (protein, listed as Homo sapiens)
# chain: MSSLGGGSQDAGGSSSSSTNGSGGSGSSGPKAGAADKSAVVAAAAPASVADDTPPPERRNKSGIISEPLNKSLRRSRPLSHYSSFGSSGGSGGGSMMGGESADKATAAAAAASLLANGHDLAAAMAVDKSNPTSKHKSGAVASLLSKAERATELAAEGQLTLQQFAQSTEMLKRVVQEHLPLMSEAGAGLPDMEAVAGAEALNGQSDFPYLGAFPINPGLFIMTPAGVFLAESALHMAGLAEYPMQGELASAISSGKKKRKRCGMCAPCRRRINCEQCSSCRNRKTGHQICKFRKCEELKKKPSAALEKVMLPTGAAFRWFQ
# System: MAP kinase cascade activation
# Assay: Reporter activity reflecting MAP kinase cascade activation, corrected using an internal control (Elk1-GAL4 luciferase reporter in 293-EBNA cells)
# Assay type: cell-based, human
# Details: 25 ng/well expression plasmid; 293-EBNA cells; 24 hours
# Procedure: (in the presence of 5% CO2). […] The method used for introduction was in accordance with the attached protocol. After culturing for 24 hours at 37° C., reporter activity (firefly luciferase acitivity), which reflects MAP kinase cascade activation, and reporter activity being the internal control (sea pansy luciferase) were measured using Picagene Dual (purchased from Toyo Ink Manufacturing) in accordance with the manufacturer's instructions.
# Luciferase activity was measured with Perkin Elmer's Wallac ARVOTMST 1420 MULTILABEL COUNTER.
# Reporter activity where an expression plasmid comprising the above gene was introduced, which reflects MAP kinase cascade activation corrected with internal control reporter activity, is shown in Table 1, which is expressed as a factor of the same reporter activity where a null vector was introduced (S/B value).
row,Molecule,"Reporter activity corrected with internal control, as a factor of null vector (S/B value)"
1,B1,2.1
2,B2,1.6
3,B3,1.8
4,B4,2.1
5,B5,4.2
6,B6,1.8
7,B7,3.4

# Same assay, conditions: 50 ng/well expression plasmid; 293-EBNA cells; 24 hours
row,Molecule,"Reporter activity corrected with internal control, as a factor of null vector (S/B value)"
1,B1,2.4
2,B2,3.2
3,B3,2.3
4,B4,2.7
5,B5,6.3
6,B6,2.3
7,B7,8.4

# Same assay, conditions: 100 ng/well expression plasmid; 293-EBNA cells; 24 hours
row,Molecule,"Reporter activity corrected with internal control, as a factor of null vector (S/B value)"
1,B1,2.9
2,B2,4.1
3,B3,2.9
4,B4,3.9
5,B5,7.6
6,B6,2.9
7,B7,8.1

# Same assay, conditions: plasmid 12.5 ng, 25 ng, 50 ng and 100 ng
row,Molecule,Dependence of corrected reporter activity on amount of expression plasmid
1,B1,increases that were dependent on the amount of expression plasmid
2,B2,increases that were dependent on the amount of expression plasmid
3,B3,increases that were dependent on the amount of expression plasmid
4,B4,increases that were dependent on the amount of expression plasmid
5,B5,increases that were dependent on the amount of expression plasmid
6,B6,increases that were dependent on the amount of expression plasmid
7,B7,increases that were dependent on the amount of expression plasmid

# Reference: patent US20030092037A1, “Elk1 phosphorylation related gene” (priority 2001, published 2003)
